Measurements taken from US12521446B2, “Anti-CEACAM5 antibody drug conjugates” (Bristol-Myers Squibb Company, priority 2024, dated 2026).

T1: full-length human CEACAM5 (Homo sapiens, UniProt P06731, T210S)
T1 construct: The SPR kinetics against full-length human and cyno CEACAM5 were set up as follows
T1 sequence (P06731 35-702 T210S): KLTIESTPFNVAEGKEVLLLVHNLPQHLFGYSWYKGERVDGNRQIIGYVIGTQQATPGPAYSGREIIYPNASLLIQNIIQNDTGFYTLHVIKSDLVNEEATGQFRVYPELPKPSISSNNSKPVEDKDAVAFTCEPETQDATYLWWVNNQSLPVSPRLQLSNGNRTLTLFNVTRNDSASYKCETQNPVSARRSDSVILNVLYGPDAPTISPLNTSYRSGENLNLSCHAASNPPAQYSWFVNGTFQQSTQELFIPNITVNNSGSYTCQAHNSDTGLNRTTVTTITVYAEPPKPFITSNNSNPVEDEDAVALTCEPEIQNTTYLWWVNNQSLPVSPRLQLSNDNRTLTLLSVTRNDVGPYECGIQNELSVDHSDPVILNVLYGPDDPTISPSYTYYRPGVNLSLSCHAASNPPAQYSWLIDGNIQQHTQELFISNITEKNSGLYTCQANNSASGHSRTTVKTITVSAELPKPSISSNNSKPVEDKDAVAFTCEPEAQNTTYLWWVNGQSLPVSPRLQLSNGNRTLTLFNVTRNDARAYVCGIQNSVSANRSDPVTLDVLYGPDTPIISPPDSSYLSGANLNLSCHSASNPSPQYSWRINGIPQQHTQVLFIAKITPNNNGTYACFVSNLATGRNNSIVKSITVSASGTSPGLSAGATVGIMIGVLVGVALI

T2: HCT116-huCEACAM5 (Homo sapiens, UniProt P06731, T210S)
T2 construct: expressed in transfected cells; host or cells: HCT-116
T2 sequence (P06731 35-676 T210S): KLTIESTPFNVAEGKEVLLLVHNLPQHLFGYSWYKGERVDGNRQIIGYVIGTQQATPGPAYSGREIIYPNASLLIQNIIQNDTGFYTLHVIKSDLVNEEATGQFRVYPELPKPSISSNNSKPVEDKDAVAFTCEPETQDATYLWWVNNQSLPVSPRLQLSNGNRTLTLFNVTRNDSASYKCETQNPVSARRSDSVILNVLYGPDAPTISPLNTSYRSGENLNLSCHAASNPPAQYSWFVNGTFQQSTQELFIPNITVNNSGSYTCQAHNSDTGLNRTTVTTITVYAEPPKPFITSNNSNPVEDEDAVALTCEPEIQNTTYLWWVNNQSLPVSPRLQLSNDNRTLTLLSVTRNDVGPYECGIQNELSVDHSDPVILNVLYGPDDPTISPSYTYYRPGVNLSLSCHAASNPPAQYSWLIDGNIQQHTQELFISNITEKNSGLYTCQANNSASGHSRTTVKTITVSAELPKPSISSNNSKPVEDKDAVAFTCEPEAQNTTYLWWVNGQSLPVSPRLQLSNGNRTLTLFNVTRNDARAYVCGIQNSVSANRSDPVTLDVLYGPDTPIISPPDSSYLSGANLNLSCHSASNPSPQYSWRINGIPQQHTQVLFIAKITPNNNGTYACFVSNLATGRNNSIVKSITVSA


Key:
[1] = biological target: T1, full-length human CEACAM5; assay: SPR kinetics of progeny antibodies (BIACORE), Example 8; type: binding; details: hIgG1.3f progeny antibodies, Table 12A
Text: (§1) Antibody genes with single amino acid substitutions and combinations of substitutions were synthesized in IgG expression vectors, transiently transfected into HEK cells, and purified via Protein A. In addition, the framework germline reversions described above were also incorporated into the sequences of the progeny. Purified IgG1.3 CEACAM5 mAb clones were characterized using the BIACORE® for high-throughput SPR-based monoclonal characterization.
(§2) The BIACORE® instrument was primed with 1×HBSP+ running buffer (Cytiva catalog no.BR100671). The CM5 chip (Cytiva catalog no. 29149604) was equilibrated to room temperature, and the BIACORE® instrument was re-primed. A human antibody Fc capture kit (Cytiva catalog no. 29234600) was utilized for this analysis. The human antibody Fc capture reagent was immobilized to both flow cells in all 8 flow channels of the CM5 chip via amine-coupling using the following conditions. Immobilization was performed at a temperature of 25° C. The anti-human Fc capture reagent was diluted to a concentration of 25 μg/mL in acetate pH5 buffer. The chip surface was activated by injecting a mixture of 1-ethyl-3-(-3-dimethylaminopropyl) carbodiimide hydrochloride (EDC) and N-hydroxy succinimide (NHS) for 420 seconds at a rate of 10 microliters per minute (uL/min). A concentration (25 ug/mL) of anti-human Fc capture reagent was then injected on the surface for 420 seconds at a rate of 10 uL/min. The remaining chip surface was blocked by injecting ethanolamine for 420 seconds at a rate of 10 uL/min.
(§3) The SPR kinetics against full-length human and cyno CEACAM5 were set up as follows. The antibody capture was performed by diluting the antibodies to a concentration of 10 nM in HBSP+ buffer. The 10 nM mAbs were captured for 20 seconds at 5 uL/min to achieve capture levels of approximately 100RU. Analyte binding was performed by first making a titration series of full-length human and cyno CEACAM5 that were prepared (from 500 nM-0.23 nM) with three-fold dilutions in HBSP+ buffer. The association rate was 180 seconds at 30 uL/min. The dissociation rate was 600 seconds at 30 uL/min. Regeneration was performed using two injections of 3M magnesium chloride MgCl2 for 30 seconds at 30 uL/min. A data fit was performed using a 1:1 binding model with global Rmax. Rmax reflects the maximal response when all ligand is occupied.

[2] = test system: full-length cyno CEACAM5; assay: as above; type: binding, cynomolgus; details: hIgG1.3f progeny antibodies, Table 12A; for Kd: read-out: cyCEACAM5 KD
Text: as §1, §2, §3

[3] = test system: MKN45; assay: Internalization of progeny antibodies (Incucyte, pHrodo red), Example 9; type: cell-based; details: hIgG1.3 progeny, 25 nM mAb, Table 13A
Method: (§4) Antibodies were evaluated for internalization using HCT-116-huCEACAM5, HCT-116-cyCEACAM5, and MKN45 cell lines.
The MKN45 or Ls174T cells were seeded at 10K cells/well (50 uL).
(§5) Cell lines were first analyzed for cell density and viability using a Vi-cell viability machine. The cell lines were diluted to 0.2E6 vc/mL in growth media, and a volume (50 uL) of each was dispensed to a flat-bottom 96-well plate to achieve cell counts of 10K cells/well. Ls174T media included MEM with 10% HI-FBS and 1% pen/strep. MKN45 media included RPMI (ATCC modification) with 10% HI-FBS and 1% pen/strep. HCT-116 media included McCoy's 5a with 10% HI-FBS, 1% pen/strep, and 6 μg/mL Blasticidin. Cells were allowed to adhere to wells of the 96-well plate (Corning Cat. No. 3595) at 37° C./5% CO2 for approximately 4 hours.
(§6) Each test mAb and control mAb was labeled by first pre-mixing the respective antibody with a pHrodo red (Fab conjugated to pH-sensitive; Thermo cat #Z25612) secondary reagent at a 3:1 dye:mAb molar ratio. A series of dilutions were prepared at 2× target concentration in growth media. […]
(§7) Coated plates contacted with the labeled mAbs were incubated at 37° C. for 30 minutes. Each plate was then read using an Incucyte apparatus, which collected images from the red and phase channels [10× objective; 3 images/well] for a 24-hour duration, with reads of plates every 30 minutes.

[4] = biological target: T2, HCT116-huCEACAM5; assay: as above; type: cell-based; details: hIgG1.3 progeny, 25 nM mAb, Table 13A
Method: as §4, §5
as §6, with “media. The final mAb target concentration was 25 nM.” for “media.”
as §7

[5] = test system: HCT116-cyCEACAM5; assay: as above; type: cell-based, cynomolgus; details: hIgG1.3 progeny, 25 nM mAb, Table 13A
Method: as §4, §5
as §6, with “media. The final mAb target concentration was 25 nM.” for “media.”
Coated plates contacted with the labeled mAbs were incubated at 37° C. for 30 minutes. Each plate was then read using an Incucyte apparatus, which collected images from the red and phase channels [10× objective; 3 images/well] for a 24-hour duration, with reads of plates every 30 minutes. […]

full-length cyno CEACAM5, sequence (as listed by the source): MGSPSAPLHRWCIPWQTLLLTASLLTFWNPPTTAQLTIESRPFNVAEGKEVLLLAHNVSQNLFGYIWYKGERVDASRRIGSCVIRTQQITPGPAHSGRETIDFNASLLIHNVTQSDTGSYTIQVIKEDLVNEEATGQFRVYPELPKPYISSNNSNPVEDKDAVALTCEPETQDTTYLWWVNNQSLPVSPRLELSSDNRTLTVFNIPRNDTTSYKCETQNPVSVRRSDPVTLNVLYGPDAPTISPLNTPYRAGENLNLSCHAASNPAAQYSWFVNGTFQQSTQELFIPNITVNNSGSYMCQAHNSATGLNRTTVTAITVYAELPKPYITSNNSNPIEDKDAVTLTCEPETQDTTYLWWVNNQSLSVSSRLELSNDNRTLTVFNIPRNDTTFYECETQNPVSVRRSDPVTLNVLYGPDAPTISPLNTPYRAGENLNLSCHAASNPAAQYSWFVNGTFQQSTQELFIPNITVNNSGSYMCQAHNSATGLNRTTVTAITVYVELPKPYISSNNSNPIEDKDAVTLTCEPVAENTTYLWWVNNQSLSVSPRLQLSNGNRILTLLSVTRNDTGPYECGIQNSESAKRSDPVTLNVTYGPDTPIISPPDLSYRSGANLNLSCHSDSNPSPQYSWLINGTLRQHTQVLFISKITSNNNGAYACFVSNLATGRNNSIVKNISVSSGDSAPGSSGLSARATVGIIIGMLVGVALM
HCT116-cyCEACAM5, sequence (as listed by the source): as above

Row | huCEACAM5 ka [1] | huCEACAM5 kd [1] | Kd [2] | HCT116-huCEACAM5 red/phase AUC (internalization) [4] | Molecule | cyCEACAM5 ka [2] | cyCEACAM5 kd [2] | MKN45 24 hr red/phase AUC (internalization) [3] | HCT116-cyCEACAM5 red/phase AUC (internalization) [5]
1 | 79600 M⁻¹ s⁻¹ | 0.00171 s⁻¹ | 21.7 nM | 1.05 | MBP007: hIgG1.3f progeny of MBN001; VH SEQ ID NO: 73, VL SEQ ID NO: 74 (antibody, V domains shown) VH: QVQLVESGGGVVQPGRSLRLSCAASGIYFSSHGMHWVRQAPGKGLEWVTFISYDGSYKSYVDSVKGRFTISRDNSKNTLYLQMNSLRAEDTAVYYCATGLTGTGANDIWGQGTMVTVSS VL: EIVLTQSPGTLSLSPGERATLSCRASQSVSSSYLAWYQQKPGQAPRLLIYGASSRATGIPDRFSGSGSGTDFTLTISRLEPEDFAVYYCQQNKPSPYTFGQGTKLEIK | 42700 M⁻¹ s⁻¹ | 0.000924 s⁻¹ | 3.28 | 1.80
2 | 50000 M⁻¹ s⁻¹ | 0.00102 s⁻¹ | 20.8 nM | 1.00 | MBP010: hIgG1.3f progeny of MBN001; VH SEQ ID NO: 79, VL SEQ ID NO: 80 (antibody, V domains shown) VH: QVQLVESGGGVVQPGRSLRLSCAASGITFSSHGMHWVRQAPGKGLEWVTFISYDSSYKSYVDSVKGRFTISRDNSKNTLYLQMNSLRAEDTAVYYCATGLTGTGAFDIWGQGTMVTVSS VL: EIVLTQSPGTLSLSPGERATLSCRASQSVSSSYLAWYQQKPGQAPRLLIYGASSRATGIPDRFSGSGSGTDFTLTISRLEPEDFAVYYCQQNKRSPYTFGQGTKLEIK | 34000 M⁻¹ s⁻¹ | 0.000706 s⁻¹ | 3.11 | 2.55
